Source: paper PMC9583845, “Characterization of the chicken melanocortin 5 receptor and its potential role in regulating hepatic glucolipid metabolism” (Frontiers in Physiology, 2022)
Entries after “also recorded” stand apart in the source; their conditions may differ. Read-outs that look alike come from different tables or passages of the source.

Columns and labels:
[1] = test system: MC5R mRNA, primary chicken hepatocytes; experiment: MC5R mRNA in primary chicken hepatocytes, RT-qPCR; assay type: cell-based; settings: 6 h
Method: To evaluate the effect of ACTH1-39 on chicken liver, the chicken hepatocytes were prepared and maintained as a monolayer culture. Briefly, one-month-old male chicken hepatocytes were isolated by perfusion of a liver with Ca^2+-free KRB buffer to remove blood cells, and being digested with 0.25% collagenase-I for 10 min. Hepatocytes were obtained following filtering and washing using M199 medium. Then the hepatocytes were plated in a Corning CellBIND 48-well microplate (Corning, NY, cat. no.3338) with M199 medium containing 100 U/ml penicillin and […] streptomycin (Gibco), 5 μg/ml bovine insulin (Sigma), and 5% FBS at 37°C in a 5% CO2 atmosphere. To adhere to the wall, the cells were incubated on the 48-well plate for 4 h. For quantitative real-time PCR, primary cultured chicken hepatocytes were treated with various concentrations of ACTH1-39 (or other composition) at 37°C for 6 h. The relative amount of mRNA was calculated using the comparative Ct method. Chicken β-actin gene was used as the reference gene. Amplification of specific transcripts was confirmed by analyzing the melting curve profile performed at the end of each run and by determining the size of the PCR products using agarose electrophoresis and ethidium bromide staining.

[2] = test system: primary chicken hepatocytes; experiment: Glucose production from primary cultured chicken hepatocytes; assay type: cell-based; settings: primary chicken hepatocytes; 100 nM for 30 or 60 min, or 0.1–100 nM for 60 min; gluconeogenic substrates 20 mM lactate, 2 mM pyruvate; four independent experiments; Figures 7A,B
Method: To evaluate the effect of ACTH1-39 on chicken liver, the chicken hepatocytes were prepared and maintained as a monolayer culture. Briefly, one-month-old male chicken hepatocytes were isolated by perfusion of a liver with Ca^2+-free KRB buffer to remove blood cells, and being digested with 0.25% collagenase-I for 10 min. Hepatocytes were obtained following filtering and washing using M199 medium. Then the hepatocytes were plated in a Corning CellBIND 48-well microplate (Corning, NY, cat. no.3338) with M199 medium containing 100 U/ml penicillin and […] streptomycin (Gibco), 5 μg/ml bovine insulin (Sigma), and 5% FBS at 37°C in a 5% CO2 atmosphere. To adhere to the wall, the cells were incubated on the 48-well plate for 4 h.
Glucose production from primary cultured chicken hepatocytes was measured as previously described ([Collins et al., 2006]). Briefly, cells were washed three times with warm phosphate-buffered saline (PBS) to remove glucose, followed by treatment with 100 nM (or different concentration gradients) chicken ATCH1-39 for 30 min or 60 min in glucose-free medium containing gluconeogenic substrates (20 mM sodium lactate and 2 mM sodium pyruvate). Glucose concentration was determined with a glucose assay kit (Applygen, Beijing, China, catalog no. E1011). Briefly, the 5 µl medium was added into 195 µl reagent and incubated for 20 min at 37°C. Absorbance in 550 nm was measured in a standard glucose solution.

[3] = test system: intracellular cAMP / CREB; settings: ref Herzig et al., 2001; Noriega et al., 2011; cited from earlier work
From the text: Like its mammalian counterparts, numerous putative transcription factor binding sites were found in the upstream of the MC5R transcription start site. According to reports, Foxo4 may bind to the ...

chicken MC5R = chicken MC5R (Gallus gallus, UniProt O73671); parameters: method as in 3 sources, ref Ling et al., 2004 ||| ref Dores et al., 2020 ||| ref Schioth et al., 1997; Ling et al., 2004; settings: cited from earlier work; for EC50 values / potency at chicken MC5R compared (in words): human α-MSH vs ACTH1-24, ref Ling et al.
MC5R orthologs + MRAP1 = settings: ref Dores et al., 2018, Barney et al., 2019, 2020, Hoglin et al., 2022; cited from earlier work
From the text: (§1) Since the R15K and I20 V substitutions in chicken and human ACTH occur in/near the KKRRP motif (Figure 2A), it might lead to different regulatory effects o ...

chicken MC5R + MRAP1 = chicken MC5R + MRAP1 (Gallus gallus, UniProt O73671); settings: 2020, cited from earlier work; for effect of MRAP1 on cMC5R sensitivity: CHO cells, ref Thomas et al., 2018, Dores et al.
From the text: as §1

chicken MC5R + MRAP2 = chicken MC5R + MRAP2 (Gallus gallus, UniProt O73671); parameters: method as in Thomas et al., 2018; settings: ref Thomas et al., 2018; cited from earlier work
chicken MC2R + MRAP1 = settings: co-expressed with MRAP1 in CHO cells; ref Barlock et al., 2014; cited from earlier work
From the text: In the chicken genome, there are five paralogous MCRs and two MRAPs ([Ling et al., 2004]; [Barlock et al., 2014]; [Zhang et al., 2017]; [Thomas et al., 2018]). In recent years, the pharmacological characterization and physiological activity of chicken MCRs (cMCRs) have been widely explored ([Scanes and Pierzchala-Koziec, 2021]). […] MC1R of dark-feathered chickens with a Glu to Lys mutation at position 92 show ...

human MC5R = settings: ref Schioth et al., 1997; Ling et al., 2004; cited from earlier work
From the text: The luciferase reporter system was then employed to investigate the signal pathway of MC5R coupling. […] Human peptides have previously been ...

chicken MC5R + MRAP1, sequence (O73671 1-325): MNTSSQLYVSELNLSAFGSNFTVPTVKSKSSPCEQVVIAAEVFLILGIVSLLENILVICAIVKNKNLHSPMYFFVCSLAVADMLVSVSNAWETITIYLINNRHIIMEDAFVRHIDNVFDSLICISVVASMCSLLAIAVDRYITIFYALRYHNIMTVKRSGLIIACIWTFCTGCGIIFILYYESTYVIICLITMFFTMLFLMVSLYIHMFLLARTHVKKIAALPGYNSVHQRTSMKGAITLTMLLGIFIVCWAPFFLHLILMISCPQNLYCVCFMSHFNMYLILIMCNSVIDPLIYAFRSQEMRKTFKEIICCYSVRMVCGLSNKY
chicken MC5R, sequence (O73671 1-325): as above
chicken MC5R + MRAP2, sequence (O73671 1-325): as above
chicken MC5R + MRAP2, sequence (A0A140B2F4 1-206 partner): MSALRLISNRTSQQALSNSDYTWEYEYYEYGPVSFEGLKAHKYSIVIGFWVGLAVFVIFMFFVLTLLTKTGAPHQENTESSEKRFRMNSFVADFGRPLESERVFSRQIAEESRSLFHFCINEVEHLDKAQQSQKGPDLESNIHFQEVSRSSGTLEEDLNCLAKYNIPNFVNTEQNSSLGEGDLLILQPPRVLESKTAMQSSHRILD

## glucagon: chicken glucagon; induce cAMP elevation in a dose-dependent way
[1]; glucagon 10–100 nM, N = 4, Figure 6E
  increase in MC5R mRNA abundance: 3.5 fold
[1]; primary chicken hepatocytes, N = 4, vs β-actin, Figures 6C-E
  MC5R mRNA abundance (in words): increased hepatic MC5R mRNA abundance; also recorded: enhance the expression of MC5R in cultured hepatocytes in a dose-dependent manner
[2]
  glucose production (in words): induction of gluconeogenesis
[3]
  intracellular cAMP accumulation and CREB activation: enhance the intracellular cAMP accumulation and activate CREB

## human ACTH1-24: shortened form of hACTH1-39 used in cited studies
Chicken MC5R; 2004
  EC50 values / potency at chicken MC5R compared (in words): equal potency for chicken MC5R
Chicken MC5R; 2004, listed as ACTH1-24
  EC50 values / potency at chicken MC5R compared (in words): equivalent
Chicken MC5R; ref Schioth et al., 1997, Ling et al., 2004
  ability of hACTH1-39 vs hACTH1-24 to activate chicken MC5R: no different
Chicken MC5R; srACTH1–24 has R15 and I20, ref Dores et al., 2020
  EC50 compared, hACTH1-24 vs srACTH1–24: no statistical differences in the EC50 values
MC5R orthologs + MRAP1
  effect of MRAP1 co-expression on sensitivity of MC5R orthologs: increase sensitivity to ACTH1-24
Chicken MC5R + MRAP1
  effect of MRAP1 on cMC5R sensitivity: improved chicken MC5R sensitivity to human ACTH1-24
Chicken MC5R + MRAP1; listed as hACTH1–24
  effect of MRAP1 on cMC5R sensitivity: significantly increased the sensitivity of cMC5R to hACTH1–24
Chicken MC5R + MRAP1; KKRRP motif of hACTH1–24 necessary, ref Dores et al.
  increase of MC5R sensitivity to hACTH1–24 with cMRAP1: ~1,000 fold
Chicken MC5R + MRAP2
  effect of MRAP2 on cMC5R sensitivity: no influence on cMC5R sensitivity to human ACTH1–24
Chicken MC2R + MRAP1
  activation of cMC2R: can be activated by ACTH1-24
Human MC5R
  ability of hACTH1-39 vs hACTH1-24 to activate human MC5R: no different
